From US12338277

Key:
Test in all cases: cell-based or functional assay
[1] = biological target: HIV-1 Env of pseudovirus 246F C1G (HIV-1)
[2] = biological target: HIV-1 Env of pseudovirus 249M B10 (HIV-1)
[3] = biological target: HIV-1 Env of pseudovirus 3016.v5.c45 (HIV-1)
[4] = biological target: HIV-1 Env of pseudovirus 3415.v1.c1 (HIV-1)
[5] = biological target: HIV-1 Env of pseudovirus BJOX010000.06.2 (HIV-1)
[6] = biological target: HIV-1 Env of pseudovirus BJOX028000.10.3 (HIV-1)
[7] = biological target: HIV-1 Env of pseudovirus C2101.c01 (HIV-1)
[8] = biological target: HIV-1 Env of pseudovirus CAP210.2.00.E8 (HIV-1)
[9] = biological target: HIV-1 Env of pseudovirus CNE17 (HIV-1)
[10] = biological target: HIV-1 Env of pseudovirus CNE58 (HIV-1)
[11] = biological target: HIV-1 Env of pseudovirus Ce0393_C3 (HIV-1)
[12] = biological target: HIV-1 Env of pseudovirus Ce1086_B2 (HIV-1)
[13] = biological target: HIV-1 Env of pseudovirus Du156.12 (HIV-1)
[14] = biological target: HIV-1 Env of pseudovirus Du422.1 (HIV-1)
[15] = biological target: HIV-1 Env of pseudovirus HIV-0013095-2.11 (HIV-1)
[16] = biological target: HIV-1 Env of pseudovirus QH0692.42 (HIV-1)
[17] = biological target: HIV-1 Env of pseudovirus REJO4541.67 (HIV-1)
[18] = biological target: HIV-1 Env of pseudovirus SC422661.8 (HIV-1)
[19] = biological target: HIV-1 Env of pseudovirus THRO4156.18 (HIV-1)
[20] = biological target: HIV-1 Env of pseudovirus X1254_c3 (HIV-1)
[21] = biological target: HIV-1 Env of pseudovirus X1632_S2_B10 (HIV-1)
[22] = biological target: HIV-1 Env of pseudovirus ZM233M.PB6 (HIV-1)
[23] = biological target: HIV-1 envelope of pseudovirus 191084 B7-19 (HIV-1)
[24] = biological target: HIV-1 envelope of pseudovirus 191821_E6_1 (HIV-1)
[25] = biological target: HIV-1 envelope of pseudovirus 231966.c02 (HIV-1)
[26] = biological target: HIV-1 envelope of pseudovirus 263-8 (HIV-1)
[27] = biological target: HIV-1 envelope of pseudovirus 3103.v3.c10 (HIV-1)
[28] = biological target: HIV-1 envelope of pseudovirus 62357_14_03_4589 (HIV-1)
[29] = biological target: HIV-1 envelope of pseudovirus 89-F1_2_25 (HIV-1)
[30] = biological target: HIV-1 envelope of pseudovirus BJOX010000.06.2 (HIV-1)
[31] = biological target: HIV-1 envelope of pseudovirus BJOX015000.11.5 (HIV-1)
[32] = biological target: HIV-1 envelope of pseudovirus BJOX028000.10.3 (HIV-1)
[33] = biological target: HIV-1 envelope of pseudovirus CAP45.2.00.G3 (HIV-1)
[34] = biological target: HIV-1 envelope of pseudovirus CNE5 (HIV-1)
[35] = biological target: HIV-1 envelope of pseudovirus CNE52 (HIV-1)
[36] = biological target: HIV-1 envelope of pseudovirus CNE8 (HIV-1)
[37] = biological target: HIV-1 envelope of pseudovirus Ce0393_C3 (HIV-1)
[38] = biological target: HIV-1 envelope of pseudovirus P1981_C5_3 (HIV-1)
[39] = biological target: HIV-1 envelope of pseudovirus Q23.17 (HIV-1)
[40] = biological target: HIV-1 envelope of pseudovirus R2184.c04 (HIV-1)
[41] = biological target: HIV-1 envelope of pseudovirus REJO4541.67 (HIV-1)
[42] = biological target: HIV-1 envelope of pseudovirus T250-4 (HIV-1)
[43] = biological target: HIV-1 envelope of pseudovirus T251-18 (HIV-1)
[44] = biological target: HIV-1 envelope of pseudovirus T255-34 (HIV-1)
[45] = biological target: HIV-1 envelope of pseudovirus THRO4156.18 (HIV-1)
[46] = biological target: HIV-1 envelope of pseudovirus WEAU_d15_410_787 (HIV-1)
[47] = biological target: HIV-1 envelope of pseudovirus ZM109F.PB4 (HIV-1)
[48] = biological target: HIV-1 envelope of pseudovirus ZM197M.PB7 (HIV-1)
[49] = biological target: HIV-1 envelope spike of pseudovirus BaL.26 (HIV-1)
[50] = biological target: HIV-1 envelope spike of pseudovirus SC422661.8 (HIV-1)

Sequence of 10-996 (antibody) (VH): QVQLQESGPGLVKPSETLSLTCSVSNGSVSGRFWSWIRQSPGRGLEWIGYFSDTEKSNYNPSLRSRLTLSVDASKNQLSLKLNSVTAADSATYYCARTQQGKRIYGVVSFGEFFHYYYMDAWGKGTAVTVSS
Sequence of 10-996 (antibody) (VL): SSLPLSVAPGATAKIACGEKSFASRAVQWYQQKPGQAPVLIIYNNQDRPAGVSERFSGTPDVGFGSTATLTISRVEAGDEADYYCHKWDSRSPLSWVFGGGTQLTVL

10-996 (antibody)
IC80 (TZM-bl neutralization) [1]: 0.27 mg/L | IC80 (TZM-bl neutralization) [2]: > 50 mg/L | IC80 (TZM-bl neutralization) [3]: > 50 mg/L | IC80 (TZM-bl neutralization) [4]: > 50 mg/L | IC80 (TZM-bl neutralization) [5]: > 50 mg/L | IC80 (TZM-bl neutralization) [6]: > 50 mg/L | IC80 (TZM-bl neutralization) [7]: > 50 mg/L | IC80 (TZM-bl neutralization) [8]: > 50 mg/L | IC80 (TZM-bl neutralization) [9]: 24.7 mg/L | IC80 (TZM-bl neutralization) [10]: 2.22 mg/L | IC80 (TZM-bl neutralization) [11]: > 50 mg/L | IC80 (TZM-bl neutralization) [12]: > 50 mg/L | IC80 (TZM-bl neutralization) [13]: 0.101 mg/L | IC80 (TZM-bl neutralization) [14]: 0.215 mg/L | IC80 (TZM-bl neutralization) [15]: > 50 mg/L | IC80 (TZM-bl neutralization) [16]: 1.85 mg/L | IC80 (TZM-bl neutralization) [17]: > 50 mg/L | IC80 (TZM-bl neutralization) [18]: 0.627 mg/L | IC80 (TZM-bl neutralization) [19]: > 50 mg/L | IC80 (TZM-bl neutralization) [20]: 0.42 mg/L | IC80 (TZM-bl neutralization) [21]: > 50 mg/L | IC80 (TZM-bl neutralization) [22]: 4.52 mg/L | IC50 (TZM-bl neutralization) [23]: 0.057 mg/L | IC50 (TZM-bl neutralization) [24]: > 50 mg/L | IC50 (TZM-bl neutralization) [25]: > 50 mg/L | IC50 (TZM-bl neutralization) [26]: 10.9 mg/L | IC50 (TZM-bl neutralization) [27]: 0.053 mg/L | IC50 (TZM-bl neutralization) [28]: 29.3 mg/L | IC50 (TZM-bl neutralization) [29]: > 50 mg/L | IC50 (TZM-bl neutralization) [30]: > 50 mg/L | IC50 (TZM-bl neutralization) [31]: > 50 mg/L | IC50 (TZM-bl neutralization) [32]: > 50 mg/L | IC50 (TZM-bl neutralization) [33]: > 50 mg/L | IC50 (TZM-bl neutralization) [34]: > 50 mg/L | IC50 (TZM-bl neutralization) [35]: 4.53 mg/L | IC50 (TZM-bl neutralization) [36]: > 50 mg/L | IC50 (TZM-bl neutralization) [37]: > 50 mg/L | IC50 (TZM-bl neutralization) [38]: 0.005 mg/L | IC50 (TZM-bl neutralization) [39]: 0.008 mg/L | IC50 (TZM-bl neutralization) [40]: > 50 mg/L | IC50 (TZM-bl neutralization) [41]: > 50 mg/L | IC50 (TZM-bl neutralization) [42]: < 0.001 mg/L | IC50 (TZM-bl neutralization) [43]: 0.939 mg/L | IC50 (TZM-bl neutralization) [44]: 28.4 mg/L | IC50 (TZM-bl neutralization) [45]: > 50 mg/L | IC50 (TZM-bl neutralization) [46]: 0.147 mg/L | IC50 (TZM-bl neutralization) [47]: > 50 mg/L | IC50 (TZM-bl neutralization) [48]: > 50 mg/L | IC50 (TZM-bl neutralization assay) [49]: 0.045 mg/L | IC80 (TZM-bl neutralization assay) [49]: 0.228 mg/L | IC50 (TZM-bl neutralization assay) [50]: 0.255 mg/L | IC80 (TZM-bl neutralization assay) [50]: 0.845 mg/L
